Data on five molecules can be found in patent US20260062490A1 (Innovent, published 2026).

Where a chain is given by its changes, count along the chain named. Names and notes keep the numbering of the source.

B1: Her2/Hel bispecific antibody, Combination 1 in Table 3 / Table 9 / Table 10 (anti-Her2: Q39K, F126C, C220S / Q38D, Q124C, C214S; anti-Hel: Q39D / Q38K) (bispecific antibody, human IgG1, kappa, L234A L235A)
heavy 1: not shown
light 1: not shown
heavy 2: EVRLLESGGGLVQPGGSLRLSCAASGFTFSNYAMGWVRDAPGKGLEWVSAISGSGGSTYYADSVKGRFTTSRDDSKNALYLQMNSLRAEDTAVYYCARGGPGWYAADVWGQGTTVTVSSASTKGPSVFPLAPSSKSTSGGTAALGCLVKDYFPEPVTVSWNSGALTSGVHTFPAVLQSSGLYSLSSVVTVPSSSLGTQTYICNVNHKPSNTKVDKKVEPKSCDKTHTCPPCPAPEAAGGPSVFLFPPKPKDTLMISRTPEVTCVVVDVSHEDPEVKFNWYVDGVEVHNAKTKPREEQYNSTYRVVSVLTVLHQDWLNGKEYKCKVSNKALPAPIEKTISKAKGQPREPQVCTLPPSRDELTKNQVSLSCAVKGFYPSDIAVEWESNGQPENNYKTTPPVLDSDGSFFLVSKLTVDKSRWQQGNVFSCSVMHEALHNHYTQKSLSLSPGK
light 2: DIQMTQSPSSLSASVGDRVTITCRASQSISSYLNWYQKKPGKAPKLLIYAASSLQSGVPSRFSGSGSGTDFTLTISSLQPEDFATYYCQQADLPAFAFGGGTKVEIKRTVAAPSVFIFPPSDEQLKSGTASVVCLLNNFYPREAKVQWKVDNALQSGNSQESVTEQDSKDSTYSLSSTLTLSKADYEKHKVYACEVTHQGLSSPVTKSFNRGEC
B2: Her2/Hel bispecific antibody, Combination 3 in Table 3 / Table 9 / Table 10 (anti-Her2: L45K, F126C, C220S / P44D, Q124C, C214S; anti-Hel: L45D / P44K) (bispecific antibody, human IgG1, kappa, L234A L235A)
heavy 1: not shown
light 1: not shown
heavy 2: B1 heavy 2 with D39Q, L45D
light 2: B1 light 2 with K38Q, P44K
B3: Her2/Hel bispecific antibody, Combination 2 in Table 3 / Table 9 / Table 10 (anti-Her2: L45K, F126C, C220S / Y87D, Q124C, C214S; anti-Hel: L45D / Y87K) (bispecific antibody)
heavy 1: not shown
light 1: not shown
heavy 2: B1 heavy 2 with D39Q, L45D
light 2: B1 light 2 with K38Q, Y87K
B4: Her2/Hel bispecific antibody, Combination 4 in Table 3 / Table 9 / Table 10 (anti-Her2: Y91K, F126C, C220S / A43D, Q124C, C214S; anti-Hel: Y91D / A43K) (bispecific antibody, human IgG1, kappa, L234A L235A)
heavy 1: not shown
light 1: not shown
heavy 2: B1 heavy 2 with D39Q, Y95D
light 2: B1 light 2 with K38Q, A43K
B5: Her2/Hel bispecific antibody, Combination 5 in Table 3 / Table 9 / Table 10 (anti-Her2: Y91K, F126C, C220S / P44D, Q124C, C214S; anti-Hel: Y91D / P44K) (bispecific antibody, human IgG1, kappa, L234A L235A)
heavy 1: not shown
light 1: not shown
heavy 2: B1 heavy 2 with D39Q, Y95D
light 2: B1 light 2 with K38Q, P44K

The experiment has as its target T1, Human Her2 (Human, UniProt P04626 23-652).
T1 construct: also called antigen Her2
As to the kind of experiment: BLI (ForteBio), antibody loaded on ProA sensors, antigen fusion protein in solution, 30 degrees. Here is the method:
Biolayer Interferometry (BLI) technology was used to test the equilibration dissociation constant (KD) of bispecific antibody binding to the respective antigens in the present disclosure. The BLI method affinity test was performed using an existing method (Estep, P et al., High throughput solution Based measurement of antibody-antigen affinity and epitope binning. MAbs, 2013.5 (2): Pages 270-8).
Half an hour before the start of the experiment, a suitable number of ProA (ForteBio, 18-5010) sensors based on the sample size were soaked in SD buffer (PBS 1×, BSA 0.1%, Tween-20 0.05%). 100 μL of SD buffer and antigen fusion protein were taken and added to a 96-well black polystyrene half-area microplate (Greiner, 675076), respectively. The sensor position was selected based on the sample position and layout. The instrument setting parameters are as follows: Run steps: Baseline, Loading ˜1 nm, Baseline, Association and Dissociation; the run time of each step depended on the sample binding and dissociation rate, and the rotational speed was 400 rpm and temperature was 30 degrees. ForteBio analysis software was used to analysis the KD value.
In general, Kd refers to the constant that tells how readily two partners part at equilibrium. Low readings indicate a tighter complex, high ones a looser complex. For orientation: koff means the rate constant with which the complex falls apart. A low value points to a long-lived complex. As usually defined, the kon is the rate constant with which the complex forms. For B1, binding was characterised by a dissociation constant (Kd) of 805 pM, the off-rate constant (koff) came out at 0.0002 s⁻¹ and the kon amounted to 249000 M⁻¹ s⁻¹.

For B2, the Kd was found to be 758 pM, the koff worked out at 0.0002 s⁻¹ and the kon stood at 264000 M⁻¹ s⁻¹.

For B3, the affinity, expressed as Kd, was 748 pM; the koff was 0.0002 s⁻¹; the kon was found to be 268000 M⁻¹ s⁻¹.

B4 had a Kd of 764 pM, a koff of 0.0002 s⁻¹ and a kon of 262000 M⁻¹ s⁻¹.

In turn, B5 returned a Kd of 720 pM, a koff of 0.0002 s⁻¹ and a kon of 278000 M⁻¹ s⁻¹.
